For 1 substance, stoichiometry N results are on record in paper PMC3194004.

Assay [1] has as its target HIV-1 full-length wild-type capsid protein (CA), residues 1-231 (HIV-1) (UniProt P03347). The experiment in a line: dynamic light scattering.
The target is the same in assay [2]. The experiment in a line: dynamic light scattering. The source holds these as a separate data set.

Read-outs that look alike come from different tables or passages of the source.

By stoichiometry N is commonly meant the number of molecules, sites or subunits per partner or assembly. Consider “HIV-1 full-length wild-type capsid protein (CA), residues 1-231 (from UniProt P03347 133-363) (natural protein)”, for which the stoichiometry N in assay [1] and in assay [2] was 2 each time.
